Laboratory results taken from patent publication JP2011160681A (dated 2011).

Columns and labels:
Experiment in all cases: ELISA, antigen coated on the plate
[1] = biological target: Human hemoglobin (human, UniProt P69905 2-142; P68871 2-147)
[2] = biological target: T1, TP41-1 peptide (HIV-1)
T1 peptide: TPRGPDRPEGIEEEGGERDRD

[3] = biological target: HAc peptide (Influenza A virus)
[4] = biological target: HSA (UniProt P02768 25-609)
[5] = biological target: Bovine serum albumin (bovine, UniProt P02769 25-607)
Bovine serum albumin, sequence (P02769 25-607 limits assumed): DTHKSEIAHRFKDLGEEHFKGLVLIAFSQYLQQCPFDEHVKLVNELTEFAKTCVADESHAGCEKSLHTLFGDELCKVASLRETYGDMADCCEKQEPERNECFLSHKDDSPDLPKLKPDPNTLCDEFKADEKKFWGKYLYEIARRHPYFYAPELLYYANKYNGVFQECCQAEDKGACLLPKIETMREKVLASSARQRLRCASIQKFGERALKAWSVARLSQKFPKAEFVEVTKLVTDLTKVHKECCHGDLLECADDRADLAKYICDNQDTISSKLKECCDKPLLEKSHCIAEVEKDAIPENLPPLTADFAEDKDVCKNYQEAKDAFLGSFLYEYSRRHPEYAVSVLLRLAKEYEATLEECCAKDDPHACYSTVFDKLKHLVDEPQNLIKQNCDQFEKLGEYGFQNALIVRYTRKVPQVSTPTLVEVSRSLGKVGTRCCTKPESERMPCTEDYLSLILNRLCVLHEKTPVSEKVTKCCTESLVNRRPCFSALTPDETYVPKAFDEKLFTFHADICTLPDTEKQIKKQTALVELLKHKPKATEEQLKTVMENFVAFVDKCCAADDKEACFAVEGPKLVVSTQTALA

HSA, sequence (P02768 25-609): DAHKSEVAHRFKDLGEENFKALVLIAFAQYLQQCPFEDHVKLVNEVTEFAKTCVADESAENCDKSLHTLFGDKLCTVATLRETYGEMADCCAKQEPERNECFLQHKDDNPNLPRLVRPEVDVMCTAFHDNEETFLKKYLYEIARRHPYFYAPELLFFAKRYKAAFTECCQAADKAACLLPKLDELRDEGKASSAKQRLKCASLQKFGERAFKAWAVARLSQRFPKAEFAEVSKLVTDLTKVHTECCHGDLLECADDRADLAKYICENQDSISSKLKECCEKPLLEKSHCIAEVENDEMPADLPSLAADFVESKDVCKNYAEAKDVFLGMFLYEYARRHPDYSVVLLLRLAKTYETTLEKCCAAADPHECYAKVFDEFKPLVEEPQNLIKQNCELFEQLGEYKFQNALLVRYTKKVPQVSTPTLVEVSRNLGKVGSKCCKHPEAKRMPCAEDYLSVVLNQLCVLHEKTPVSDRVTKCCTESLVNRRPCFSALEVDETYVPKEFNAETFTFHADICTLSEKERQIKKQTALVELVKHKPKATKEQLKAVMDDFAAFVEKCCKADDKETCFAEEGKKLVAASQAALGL
Human hemoglobin, sequence (P69905 2-142 limits assumed, chain 1 of 2): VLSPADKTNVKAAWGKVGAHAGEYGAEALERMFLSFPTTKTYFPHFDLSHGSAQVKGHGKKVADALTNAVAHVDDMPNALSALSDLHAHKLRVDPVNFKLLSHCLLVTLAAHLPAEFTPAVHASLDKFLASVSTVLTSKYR
Human hemoglobin, sequence (P68871 2-147 limits assumed, chain 2 of 2): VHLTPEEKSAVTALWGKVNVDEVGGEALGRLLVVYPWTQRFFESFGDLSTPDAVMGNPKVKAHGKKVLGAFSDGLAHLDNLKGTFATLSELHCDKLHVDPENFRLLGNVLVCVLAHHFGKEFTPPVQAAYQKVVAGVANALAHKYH

B1: InfA-15 monoclonal antibody (antibody, V domains shown)
VH: QVQLKESGPGLVAPSQSLSITCTVSGFSLTKSGLHWVRQPPGKGLEWLGVIWAGGSTDYNSALTSRLTITKDNSKSQIFFRLNSLQTADTAMYYCVRSTFLYAMDFWGQGTSVTVS
VL: DAVMTQTPLSLPVSLGDQASISCRSSPSLEHSNGNTYLNWYLQKPGQSPQLLIYRVSNRFSGVPDRFSGSGSGTDFTLKISRVEAEDLGVYFCLQVTHVPPTFGGGTKLEIKR
B1: no binding (tested: 4 μg/ml (coated antigen)) [1]; no binding (tested: 4 μg/ml (coated antigen)) [2]; no binding (tested: 4 μg/ml (coated antigen)) [3]. B1: no binding (tested: 4 μg/ml (coated antigen)) [4]; no binding (tested: 4 μg/ml (coated antigen)) [5].
